Measured values taken from patent US7880021B2, “Compounds and kits for the detection and the quantification of cell apoptosis” (Centre National de la Recherche Scientifique (CNRS), priority 2005, dated 2011).
Numbered stars: 1 amine (or outer) side, 2 acyl side, 3 side chain; on linkers, the order of the positions; unused ones are H or OH. Bridge positions count the residues as written; N and C are the ends. Square brackets hold non-standard residues; d marks the D form. Peptide text beside a SMILES is read from it. I, II: the chains in the order shown. Actinocin(9to1) = Cc1c2oc3c(C)ccc(C(=O)[*:1])c3nc-2c(C(=O)[*:2])c(N)c1=O; NMeV = CN[C@H](C(=O)O)C(C)C; Sar = CNCC(=O)O

B1: annexin V-FITC: Annexin V labelled with fluorescein isothiocyanate, kit from Immunotech; reference apoptosis marker (protein, UniProt P08758 2-320, looked up)
Annexin A5: AQVLRGTVTDFPGFDERADAETLRKAMKGLGTDEESILTLLTSRSNAQRQEISAAFKTLFGRDLLDDLKSELTGKFEKLIVALMKPSRLYDAYELKHALKGAGTNEKVLTEIIASRTPEELRAIKQVYEEEYGSSLEDDVVGDTSGYYQRMLVVLLQANRDPDAGIDEAQVEQDAQALFQAGELKWGTDEEKFITIFGTRSVSHLRKVFDKYMTISGFQIEETIDRETSGNLEQLLLAVVKSIRSIPAYLAETLYYAMKGAGTDDHTLIRVMVSRSEIDLFNIRKEFRKNFATSLYSMIKGDTSGDYKKALLLLCGEDD
modifications: FITC label

Experiments:
CEM T cells = assay: Determination of hypodiploid DNA with PI by flow cytometry; format: cell-based, human; conditions: actinomycin D 0.5 μg/ml for 18 h; mean±SEM
Procedure: (§1) Human lymphoid CEM T cells were cultured in X-vivo 15 medium (Cambrex, France) at 37° C. in humidified 5% CO2 atmosphere. Cell viability was checked by trypan blue exclusion. Cells were seeded at 5×10^5 cells/ml in the presence or absence of actinomycin D (0.5 μg/ml) for 18 h. Cells were pelleted by centrifugation at 1500 rpm for 5 min and resuspended at 1×10^6 cells/ml in X-vivo 15 medium for experiments.
To verify the proportion of apoptotic cells, measurements of hypodiploid DNA with PI by flow cytometry have been performed. After apoptotic treatment, cells were harvested and numbered. Concentration in a 70% ethanol solution in H2O was adjusted to 5×10^5 cells/ml and fixation was allowed to proceed for at least 1 h at 4° C. Cells were washed once in Hank's balanced salt solution (HBSS) before resuspension in HBSS containing RNAse (0.5 mg/ml), PI (0.1 mg/ml) and incubation for 15 min at room temperature in the dark. Samples were analysed by flow cytometry using the CELLQuest software (Becton Dickinson, San Jose, Calif.). Under these conditions, the content of hypodiploid DNA in CEM T cells was 30±2% (mean±SEM).

T lymphoblastoid cells = assay: Flow cytometry analysis with annexin V-FITC, PI and F2N12S; format: cell-based, human
Source text: FIG. 6: Flow cytometry analysis of T lymphoblastoid cells treated by actinomycin D. Cells were stained by annexin V-FITC, PI and F2N12S. In (a), Annexin V-FITC and PI were selectively excited at 488 nm. Cells are sorted into living, dead and apoptotic cell populations. In (b), F2N12S is selectively excited at 407 nm. Living cells are discriminated from apoptotic and necrotic cells. In (c), the PI fluorescence intensities are plotted versus the T*/N* ratio of F2N12S. Living cells are in green, apoptotic cells are in cyan and dead cells are in orange. In (d), the populations sorted using the F2N12S/PI couple were colored according to their response with the annexin V/PI couple. The wavelengths of maximal transmission and bandwidths of used filters are indicated in brackets.
FIG. 7: Comparison of the intensiometric response of annexin V-FITC (a) with the ratiometric fluorescence response of F2N12S (b). Living, dead and apoptotic cells were identified as described in FIG. 6, by using either the annexin V-FITC/PI (a) or the F2N12S/PI (b) couple of dyes.
FIG. 8: Comparison of the response of annexin V-FITC and F2N12S on non-treated T lymphoblastoid cells stained by annexin V-FITC, PI and F2N12S. In (a), annexin V-FITC and PI were selectively excited at 488 nm. In (b), F2N12S is selectively excited at 407 nm. Cells are sorted into living and dead cell populations.
as §1
For the validation of F2N12S in cell cytometry, we used a FASCARIA™ (cell sorter) (BD Biosciences, CA, USA) equipped with an argon laser (488 nm) and a diode laser (407 nm) and emission filters DF30, DF42 and DF20 centered at 530 nm, 585 nm and 610 nm, respectively. The optical pathways corresponding to the argon laser and to the diode laser are independent. Data were analyzed using the FACSDIVA™ (cell sorter) Software (BD Biosciences). The granulation, size and fluorescence intensity were recorded at a rate of ˜1000 cells per second.
T lymphoblastoid cells were treated with actinomycin D and labeled simultaneously by FITC-labeled annexin V, propidium iodide (PI) and F2N12S. […] The emissions of FITC and PI were collected in the spectral regions of 515-545 nm and 600-620 nm, respectively. […] The emission light in this case was collected in two spectral regions: at 515-545 nm to monitor the emission of the N* band and 564-606 nm to collect the emission of the T* band (FIG. 6b). […] The second one is characterized by a high N*/T* intensity ratio (shown in red) and can be assigned to apoptotic and dead cells.
The probe of the invention F2N12S has been combined with PI and the fluorescence intensities of PI have been represented as a function of the T*/N* ratio of F2N12S (FIG. 6c). In this case, the populations of apoptotic and dead cells are clearly discriminated by using the differences in the PI intensities. […] This conclusion was further strengthened when the populations discriminated by the F2N12S/PI couple were colored according to their response with the annexin V-FITC/PI couple (FIG. 6d).

T lymphocytes = assay: Laser scanning confocal ratiometric imaging of T lymphocytes; format: cell-based
Procedure: FIG. 9: Laser scanning confocal imaging of T lymphocytes stained with annexin V-FITC (a) and F2N12S (b and c). Combination of transmission and fluorescence images of cells treated with actinomycin D for 18 hours (please complete this sentence). […] Due to their low binding to annexin V, normal cells are not visualized in the fluorescence images. (b and c) Ratiometric images of normal (b) and actinomycin D-treated (c) cells stained with 0.2 μM F2N12S. […] The size of the images is 60×73.1 μm.
FIG. 10: Time-series of confocal fluorescence ratiometric images of actinomycin D-treated T lymphocytes stained with F2N12S. The cells were treated with actinomycin D for 18 hours and then, incubated with the probe (0.2 μM) for 5 min. Images were recorded at 1 min (a), 10 min (b) and 20 min (c) post incubation. […] The size of the images is 60×73.1 μm.
For collecting cell images, a Laser Scanning Confocal Imaging System MRC-1024 (Bio-Rad) was used. Cells in chambered cover glass were prepared by following the preparation procedure described above. The 442 nm line of a HeCd laser was used as the excitation light source. Emission was collected by using two filters: 485/30 for the N* band and 585LP for the T* band. Collected images were analyzed by the Amira 3.0 software.
To further compare F2N12S and annexinV-derived probes, two-color ratiometric images of F2N12S-labeled cells undergoing apoptosis were recorded by laser scanning confocal microscopy and compared with intensity based images obtained using annexin V-FITC. […] Moreover, the fluorescence intensity of apoptotic cells varies considerably from cell to cell. These differences are difficult to interpret since the intensity depends on the probe concentration as well as on the size and confluence of the cells. […] According to our spectroscopy and flow cytometry data, the latter cells are apoptotic. […] Thus, unlike annexin V-FITC, these probes provide an absolute parameter, the intensity ratio, which can be calibrated, and can characterize the level of apoptosis independently of the probe/cell concentration and the excitation light intensity. In addition, the inventors have observed that in normal cells and cells on the initial steps of apoptosis, the T*/N* intensity ratio is not evenly distributed within the plasma membrane of a given cell. This may indicate an inhomogeneous lipid composition of their plasma membranes that is likely related to the presence of lipid domains.
The inventors also follow apoptotic transformation of the plasma membrane as a function of time. Normal and actinomycin D-treated cells were stained with the corresponding probe and the fluorescence images were subsequently recorded during 20 min. […]

[1] = actinomycin D-treated cells, probe combined with PI

Molecule	content of hypodiploid DNA (CEM T cells)	percentage of apoptotic cells (T lymphoblastoid cells; [1])	percentage of dead cells (T lymphoblastoid cells; [1])	percentage of living cells (T lymphoblastoid cells; [1])	percentage of dead cells (T lymphoblastoid cells; non-treated T lymphoblastoid cells)	time-dependent change of the fluorescence images (T lymphocytes; actinomycin D-treated cells, images recorded during 20 min)	which cells are stained in fluorescence images (T lymphocytes; normal and actinomycin D-treated cells)
Cc1c2oc3c(C)ccc(C(=O)N[C@@H]4C(=O)N[C@H](C(C)C)C(=O)N5CCC[C@H]5C(=O)N(C)CC(=O)N(C)[C@@H](C(C)C)C(=O)O[C@@H]4C)c3nc-2c(C(=O)N[C@@H]2C(=O)N[C@H](C(C)C)C(=O)N3CCC[C@H]3C(=O)N(C)CC(=O)N(C)[C@@H](C(C)C)C(=O)O[C@@H]2C)c(N)c1=O [actinomycin D, Actinomycin D] (I: T[dV]P[Sar][NMeV] / II: T[dV]P[Sar][NMeV]; ester I:1-I:C, II:1-II:C; linker I:N-II:N via Actinocin(9to1))	30±2%						
B1		18%	49%	33%	5%	not possible to detect any time-dependent changes	labels only apoptotic and necrotic cells
